The text below walks through data of publication PMC5346689.

Common to all, as to assay: SEC; HiLoad 26/60 Superdex 75 prep grade column; buffer B (20 mM MES, 50 mM NaCl, 10 mM CaCl2, pH 7.0); oligomeric state of each purified S100A4 protein in solution
In general terms: SEC sorts molecules by how far they enter the pores of the column.

For assay [1], the target named is recombinant wild-type S100A4 (UniProt P26447).
Assay [2] concerns the target S100A4 N-terminal Ca2+-binding site mutant E23A/D25A (UniProt P26447).
Assay [3] deals with S100A4 C-terminal Ca2+ binding site mutant N65I/D67A (UniProt P26447).

In general, stoichiometry N refers to a count of units in the complex or per binding partner.

As for “recombinant wild-type S100A4 (from UniProt P26447 1-101) (natural protein)”, in assay [1], the stoichiometry N amounted to 2.

On to “S100A4 N-terminal Ca2+-binding site mutant E23A/D25A (from UniProt P26447 1-101) (natural protein)”, for which, in assay [2], the stoichiometry N came to 2.

As for “S100A4 C-terminal Ca2+ binding site mutant N65I/D67A (from UniProt P26447 1-101) (natural protein)”, the stoichiometry N in assay [3] worked out at 2.
